The source of these data is PMC6171917 (PLoS ONE, 2018).

One assay concerns the target T1, desmin, full-length (UniProt P17661 1-470).
T1 construct: desmin; The desmin fragments are said to be human; also called desmin IFs; source: E. coli, purified following a published protocol [37]; also whole E. coli extract; assembled in vitro into IFs for sedimentation assays
Kind of assay: co-sedimentation; FluoBACE on in vitro assembled IFs (25 μg/mL constant); serial dilutions of HEK 293T soluble extract with EGFP-DSP C-terminus (active ≤ 30 nM); 15 min at 4°C (K5/K14 IFs) or 22°C (desmin IFs); 20,000 × g 30 min; fluorescence in supernatant; one site specific binding with Hill slope; apparent Kd. The settings on record: one partner purified.

Assay [1] concerns the target T2, K5/K14 (mixture or heterodimer of full-length cytokeratins 5 and 14) (UniProt P13647 1-590; P02533 1-472).
T2 construct: cytokeratin 5 (K5), plasmid pET23-K5; cytokeratin 14 (K14), plasmid pET23-K14; Same two recombinant proteins used spotted in 8 M urea (dot blot) and as in vitro assembled filaments (sedimentation assays); also called K5/K14 IFs; K5/K14 filaments; source: mixed for spotting, or heterodimer isolated by anion exchange and assembled into IFs
T2 sequence (looked up) 1: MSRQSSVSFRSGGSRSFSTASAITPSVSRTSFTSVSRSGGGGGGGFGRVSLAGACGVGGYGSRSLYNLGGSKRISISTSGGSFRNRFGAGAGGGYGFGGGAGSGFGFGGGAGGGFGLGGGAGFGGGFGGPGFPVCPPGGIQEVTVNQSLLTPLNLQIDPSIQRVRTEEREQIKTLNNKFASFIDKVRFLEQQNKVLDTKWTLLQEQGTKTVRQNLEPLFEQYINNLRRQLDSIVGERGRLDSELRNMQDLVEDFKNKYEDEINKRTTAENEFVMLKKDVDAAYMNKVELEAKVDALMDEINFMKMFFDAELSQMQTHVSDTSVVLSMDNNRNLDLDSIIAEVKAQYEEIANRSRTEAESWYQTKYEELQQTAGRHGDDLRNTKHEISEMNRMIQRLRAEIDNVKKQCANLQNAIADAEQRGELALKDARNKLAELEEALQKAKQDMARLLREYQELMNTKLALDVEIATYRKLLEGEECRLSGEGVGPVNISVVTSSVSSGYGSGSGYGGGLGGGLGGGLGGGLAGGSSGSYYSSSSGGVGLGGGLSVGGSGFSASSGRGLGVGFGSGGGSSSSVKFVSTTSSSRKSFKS
T2 sequence (looked up) 2: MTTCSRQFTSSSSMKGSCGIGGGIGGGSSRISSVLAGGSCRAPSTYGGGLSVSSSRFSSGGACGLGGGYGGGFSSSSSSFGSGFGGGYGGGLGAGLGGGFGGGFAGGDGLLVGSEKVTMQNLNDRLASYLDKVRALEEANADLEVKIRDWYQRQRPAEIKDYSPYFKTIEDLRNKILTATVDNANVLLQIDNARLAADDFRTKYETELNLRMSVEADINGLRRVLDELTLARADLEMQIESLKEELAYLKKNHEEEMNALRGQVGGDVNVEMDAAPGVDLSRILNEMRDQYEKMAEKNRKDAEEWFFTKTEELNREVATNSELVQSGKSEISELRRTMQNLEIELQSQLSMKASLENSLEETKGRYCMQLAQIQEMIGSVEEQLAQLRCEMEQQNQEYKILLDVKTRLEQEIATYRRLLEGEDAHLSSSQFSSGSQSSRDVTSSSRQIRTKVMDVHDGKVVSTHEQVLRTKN
The description is as above. Particulars: one partner purified.

Assay [2] addresses T3, K5 (cytokeratin 5), purified (UniProt P13647 1-590).
T3 construct: cytokeratin 5 (K5), plasmid pET23-K5; source: E. coli Rosetta pLysS, inclusion bodies, purified (cation exchange, Superdex 200 in 6 M urea)
T3 sequence (looked up): T2 sequence (looked up) 1
Kind of assay: co-sedimentation; K5 and K14 mixed 1.1:1, heterodimer isolated on anion exchanger in 8 M urea, dialyzed against 0.7 mM sodium phosphate pH 7.5, assembly with 20 mM KCl at 37°C 30 min; 20,000 × g 4°C 30 min, pellet and supernatant by SDS-PAGE. The settings on record: both partners purified.

T1 sequence (P17661 whole entry, the tested form may be a part): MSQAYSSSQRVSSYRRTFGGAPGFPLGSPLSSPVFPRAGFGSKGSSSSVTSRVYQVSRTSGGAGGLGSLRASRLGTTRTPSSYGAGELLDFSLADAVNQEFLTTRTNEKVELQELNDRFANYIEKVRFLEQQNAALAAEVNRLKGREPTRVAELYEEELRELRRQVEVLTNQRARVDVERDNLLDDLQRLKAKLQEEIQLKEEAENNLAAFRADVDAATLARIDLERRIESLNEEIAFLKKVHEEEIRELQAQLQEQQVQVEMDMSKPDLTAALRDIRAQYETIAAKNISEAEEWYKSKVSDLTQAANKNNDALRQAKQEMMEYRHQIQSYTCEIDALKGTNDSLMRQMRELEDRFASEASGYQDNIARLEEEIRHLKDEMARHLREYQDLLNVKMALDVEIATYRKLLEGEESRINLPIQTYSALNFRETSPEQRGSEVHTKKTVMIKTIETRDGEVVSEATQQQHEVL

B1: EGFP-DSP C-terminus (C-terminus of desmoplakin tagged at the N-terminus with EGFP) (domain or fragment, UniProt P15924-1 2194-2871, looked up)
chain: PHTGLLLLSVQKRSMSFQGIRQPVTVTELVDSGILRPSTVNELESGQISYDEVGERIKDFLQGSSCIAGIYNETTKQKLGIYEAMKIGLVRPGTALELLEAQAATGFIVDPVSNLRLPVEEAYKRGLVGIEFKEKLLSAERAVTGYNDPETGNIISLFQAMNKELIEKGHGIRLLEAQIATGGIIDPKESHRLPVDIAYKRGYFNEELSEILSDPSDDTKGFFDPNTEENLTYLQLKERCIKDEETGLCLLPLKEKKKQVQTSQKNTLRKRRVVIVDPETNKEMSVQEAYKKGLIDYETFKELCEQECEWEEITITGSDGSTRVVLVDRKTGSQYDIQDAIDKGLVDRKFFDQYRSGSLSLTQFADMISLKNGVGTSSSMGSGVSDDVFSSSRHESVSKISTISSVRNLTIRSSSFSDTLEESSPIAAIFDTENLEKISITEGIERGIVDSITGQRLLEAQACTGGIIHPTTGQKLSLQDAVSQGVIDQDMATRLKPAQKAFIGFEGVKGKKKMSAAEAVKEKWLPYEAGQRFLEFQYLTGGLVDPEVHGRISTEEAIRKGFIDGRAAQRLQDTSSYAKILTCPKTKLKISYKDAINRSMVEDITGLRLLEAASVSSKGLPSPYNMSSAPGSRSGSRSGSRSGSRSGSRSGSRRGGFDATGNSSYSYSYSFSSSSIGH
notes: construct previously described [8]; KD curves use the active concentration; source: HEK 293T, transfected (calcium phosphate), soluble fraction of cell lysate; not shown: EGFP, N-terminal, kept
With B1, the Kd in the assay with desmin, full-length worked out at 0.018 µM; in assay [1], 0.01 µM.

B2: K14 (cytokeratin 14), purified (natural protein, UniProt P02533 1-472, looked up)
chain: T2 sequence (looked up) 2
notes: cytokeratin 14 (K14), plasmid pET23-K14; source: E. coli Rosetta, inclusion bodies, purified (anion exchange, gel filtration in 6 M urea)
Consider B2, for which the binding result in assay [2] was “binds”.
